Test results published in PMC10786891, “Massively parallel profiling of RNA-targeting CRISPR-Cas13d”.

Molecular target: T1, EsCas13d, nuclease-dead (Eubacterium siraeum, UniProt B0MS50, R295A;H300A;R849A;H854A)
T1 sequence: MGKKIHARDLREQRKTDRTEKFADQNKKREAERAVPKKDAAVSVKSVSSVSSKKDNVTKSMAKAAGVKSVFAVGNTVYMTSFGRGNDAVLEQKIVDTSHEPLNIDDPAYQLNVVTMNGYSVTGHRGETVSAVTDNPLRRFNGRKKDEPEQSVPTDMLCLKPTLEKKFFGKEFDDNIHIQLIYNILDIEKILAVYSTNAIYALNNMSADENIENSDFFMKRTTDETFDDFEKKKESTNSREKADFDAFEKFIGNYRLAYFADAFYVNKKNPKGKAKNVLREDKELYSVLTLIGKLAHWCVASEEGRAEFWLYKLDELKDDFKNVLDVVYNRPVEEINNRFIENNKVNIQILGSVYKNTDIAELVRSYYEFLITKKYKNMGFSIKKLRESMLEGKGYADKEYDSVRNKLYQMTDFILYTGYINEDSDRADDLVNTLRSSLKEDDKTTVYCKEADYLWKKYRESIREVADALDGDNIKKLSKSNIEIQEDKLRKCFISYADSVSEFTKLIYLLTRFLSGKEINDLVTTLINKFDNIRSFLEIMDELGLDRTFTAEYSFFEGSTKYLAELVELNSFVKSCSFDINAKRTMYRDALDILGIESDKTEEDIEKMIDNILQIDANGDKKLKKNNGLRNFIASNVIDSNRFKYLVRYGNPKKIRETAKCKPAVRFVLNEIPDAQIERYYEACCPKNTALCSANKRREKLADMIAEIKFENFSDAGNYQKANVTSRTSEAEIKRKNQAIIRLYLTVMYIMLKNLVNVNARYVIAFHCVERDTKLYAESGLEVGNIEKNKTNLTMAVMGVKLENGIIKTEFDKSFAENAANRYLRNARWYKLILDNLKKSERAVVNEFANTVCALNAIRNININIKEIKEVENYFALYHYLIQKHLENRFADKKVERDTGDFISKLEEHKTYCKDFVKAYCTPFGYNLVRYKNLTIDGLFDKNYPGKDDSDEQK
Assay: crRNA (strand 1, pre-loaded); Mg2+; 40 mM Tris-HCl pH 7.5, 150 mM NaCl, 6 mM MgCl2, 1 mM DTT, 0.1% Tween-20, 0.2 mg/ml BSA; 25 C; 10 min per concentration, then washed
Details: tags: His6-TwinStrep-SUMO cleaved; N-terminal SNAP kept (SNAP-Surface 488); label: 3' end held by stalled T7 RNA polymerase

Binder	Kd [nM]
target 1 A1G (mixed) RNA 1: CACCCGUGCAAAAAUGCAGGGGUCUAAAACUGAGCGGAUAACCUCUCUAUGG RNA 2: GGGAAUGGAUCCACAUCUACGAAUUCGUACCAUAGAGAGGUUAUCCGCUCGCCGAGAUCGGAAGAGCACACGU	8.6 ± 0.7
target 1 insC 3' of 1,insU 3' of 1 (mixed) RNA 1: CACCCGUGCAAAAAUGCAGGGGUCUAAAACUGAGCGGAUAACCUCUCUAUGG RNA 2: GGGAAUGGAUCCACAUCUACGAAUUCGUACCAUAGAGAGGUUAUCCGCUCACUCCGAGAUCGGAAGAGCACACGU	10 ± 0.4
target 1 insC 3' of 20,insU 3' of 13 (mixed) RNA 1: CACCCGUGCAAAAAUGCAGGGGUCUAAAACUGAGCGGAUAACCUCUCUAUGG RNA 2: GGGAAUGGAUCCACAUCUACGAAUUCGUACCACUAGAGAGUGUUAUCCGCUCACCGAGAUCGGAAGAGCACACGU	6.9 ± 0.7
target 1 U11C,A18U (mixed) RNA 1: CACCCGUGCAAAAAUGCAGGGGUCUAAAACUGAGCGGAUAACCUCUCUAUGG RNA 2: GGGAAUGGAUCCACAUCUACGAAUUCGUACCAUUGAGAGGCUAUCCGCUCACCGAGAUCGGAAGAGCACACGU	45 ± 6
target 1 C7A,U8G (mixed) RNA 1: CACCCGUGCAAAAAUGCAGGGGUCUAAAACUGAGCGGAUAACCUCUCUAUGG RNA 2: GGGAAUGGAUCCACAUCUACGAAUUCGUACCAUAGAGAGGUUAGACGCUCACCGAGAUCGGAAGAGCACACGU	9.8 ± 1.1
target 1 C2U,U19A (mixed) RNA 1: CACCCGUGCAAAAAUGCAGGGGUCUAAAACUGAGCGGAUAACCUCUCUAUGG RNA 2: GGGAAUGGAUCCACAUCUACGAAUUCGUACCAAAGAGAGGUUAUCCGCUUACCGAGAUCGGAAGAGCACACGU	26.5 ± 2.9
target 1 U8C,A20C (mixed) RNA 1: CACCCGUGCAAAAAUGCAGGGGUCUAAAACUGAGCGGAUAACCUCUCUAUGG RNA 2: GGGAAUGGAUCCACAUCUACGAAUUCGUACCCUAGAGAGGUUACCCGCUCACCGAGAUCGGAAGAGCACACGU	65 ± 7
target 1 insA 3' of 22,insA 3' of 12 (mixed) RNA 1: CACCCGUGCAAAAAUGCAGGGGUCUAAAACUGAGCGGAUAACCUCUCUAUGG RNA 2: GGGAAUGGAUCCACAUCUACGAAUUCGUACACAUAGAGAGGAUUAUCCGCUCACCGAGAUCGGAAGAGCACACGU	47 ± 8
target 1 C4G,A16G (mixed) RNA 1: CACCCGUGCAAAAAUGCAGGGGUCUAAAACUGAGCGGAUAACCUCUCUAUGG RNA 2: GGGAAUGGAUCCACAUCUACGAAUUCGUACCAUAGGGAGGUUAUCCGGUCACCGAGAUCGGAAGAGCACACGU	16.3 ± 3.2
target 1 insC 3' of 11,insA 3' of 7 (mixed) RNA 1: CACCCGUGCAAAAAUGCAGGGGUCUAAAACUGAGCGGAUAACCUCUCUAUGG RNA 2: GGGAAUGGAUCCACAUCUACGAAUUCGUACCAUAGAGAGGUCUAUCACGCUCACCGAGAUCGGAAGAGCACACGU	25.7 ± 1.5
target 1 insU 3' of 4,insG 3' of 3 (mixed) RNA 1: CACCCGUGCAAAAAUGCAGGGGUCUAAAACUGAGCGGAUAACCUCUCUAUGG RNA 2: GGGAAUGGAUCCACAUCUACGAAUUCGUACCAUAGAGAGGUUAUCCGCUUGCACCGAGAUCGGAAGAGCACACGU	7.77 ± 0.31
target 1 insC 3' of 1,insG 3' of 1 (mixed) RNA 1: CACCCGUGCAAAAAUGCAGGGGUCUAAAACUGAGCGGAUAACCUCUCUAUGG RNA 2: GGGAAUGGAUCCACAUCUACGAAUUCGUACCAUAGAGAGGUUAUCCGCUCACGCCGAGAUCGGAAGAGCACACGU	9 ± 0.7
target 1 A9C (mixed) RNA 1: CACCCGUGCAAAAAUGCAGGGGUCUAAAACUGAGCGGAUAACCUCUCUAUGG RNA 2: GGGAAUGGAUCCACAUCUACGAAUUCGUACCAUAGAGAGGUUCUCCGCUCACCGAGAUCGGAAGAGCACACGU	15 ± 0.7
target 1 A16C,A18U (mixed) RNA 1: CACCCGUGCAAAAAUGCAGGGGUCUAAAACUGAGCGGAUAACCUCUCUAUGG RNA 2: GGGAAUGGAUCCACAUCUACGAAUUCGUACCAUUGCGAGGUUAUCCGCUCACCGAGAUCGGAAGAGCACACGU	89 ± 11
target 1 A1C,A9C (mixed) RNA 1: CACCCGUGCAAAAAUGCAGGGGUCUAAAACUGAGCGGAUAACCUCUCUAUGG RNA 2: GGGAAUGGAUCCACAUCUACGAAUUCGUACCAUAGAGAGGUUCUCCGCUCCCCGAGAUCGGAAGAGCACACGU	22.5 ± 3
target 1 insC 3' of 11,insA 3' of 2 (mixed) RNA 1: CACCCGUGCAAAAAUGCAGGGGUCUAAAACUGAGCGGAUAACCUCUCUAUGG RNA 2: GGGAAUGGAUCCACAUCUACGAAUUCGUACCAUAGAGAGGUCUAUCCGCUCAACCGAGAUCGGAAGAGCACACGU	38 ± 4
target 1 insC 3' of 18,insA 3' of 13 (mixed) RNA 1: CACCCGUGCAAAAAUGCAGGGGUCUAAAACUGAGCGGAUAACCUCUCUAUGG RNA 2: GGGAAUGGAUCCACAUCUACGAAUUCGUACCAUACGAGAGAGUUAUCCGCUCACCGAGAUCGGAAGAGCACACGU	24.4 ± 1.9
target 1 insC 3' of 3,insA 3' of 3 (mixed) RNA 1: CACCCGUGCAAAAAUGCAGGGGUCUAAAACUGAGCGGAUAACCUCUCUAUGG RNA 2: GGGAAUGGAUCCACAUCUACGAAUUCGUACCAUAGAGAGGUUAUCCGCUCACACCGAGAUCGGAAGAGCACACGU	9.8 ± 0.5
target 1 U10C,G17U (mixed) RNA 1: CACCCGUGCAAAAAUGCAGGGGUCUAAAACUGAGCGGAUAACCUCUCUAUGG RNA 2: GGGAAUGGAUCCACAUCUACGAAUUCGUACCAUAUAGAGGUCAUCCGCUCACCGAGAUCGGAAGAGCACACGU	55 ± 4
target 1 G5C,U11A (mixed) RNA 1: CACCCGUGCAAAAAUGCAGGGGUCUAAAACUGAGCGGAUAACCUCUCUAUGG RNA 2: GGGAAUGGAUCCACAUCUACGAAUUCGUACCAUAGAGAGGAUAUCCCCUCACCGAGAUCGGAAGAGCACACGU	46 ± 10
target 1 insC 3' of 19,insA 3' of 4 (mixed) RNA 1: CACCCGUGCAAAAAUGCAGGGGUCUAAAACUGAGCGGAUAACCUCUCUAUGG RNA 2: GGGAAUGGAUCCACAUCUACGAAUUCGUACCAUCAGAGAGGUUAUCCGCAUCACCGAGAUCGGAAGAGCACACGU	25 ± 6
target 1 insA 3' of 15,insA 3' of 3 (mixed) RNA 1: CACCCGUGCAAAAAUGCAGGGGUCUAAAACUGAGCGGAUAACCUCUCUAUGG RNA 2: GGGAAUGGAUCCACAUCUACGAAUUCGUACCAUAGAGAAGGUUAUCCGCUACACCGAGAUCGGAAGAGCACACGU	7.48 ± 0.34
target 1 insG 3' of 11,insU 3' of 7 (mixed) RNA 1: CACCCGUGCAAAAAUGCAGGGGUCUAAAACUGAGCGGAUAACCUCUCUAUGG RNA 2: GGGAAUGGAUCCACAUCUACGAAUUCGUACCAUAGAGAGGUGUAUCUCGCUCACCGAGAUCGGAAGAGCACACGU	24.9 ± 0.8
target 1 insU 3' of 9,insC 3' of 1 (mixed) RNA 1: CACCCGUGCAAAAAUGCAGGGGUCUAAAACUGAGCGGAUAACCUCUCUAUGG RNA 2: GGGAAUGGAUCCACAUCUACGAAUUCGUACCAUAGAGAGGUUAUUCCGCUCACCCGAGAUCGGAAGAGCACACGU	14.8 ± 0.7
target 1 insC 3' of 22,insG 3' of 21 (mixed) RNA 1: CACCCGUGCAAAAAUGCAGGGGUCUAAAACUGAGCGGAUAACCUCUCUAUGG RNA 2: GGGAAUGGAUCCACAUCUACGAAUUCGUACCCGAUAGAGAGGUUAUCCGCUCACCGAGAUCGGAAGAGCACACGU	27.3 ± 3.1
target 1 insC 3' of 3,insU 3' of 1 (mixed) RNA 1: CACCCGUGCAAAAAUGCAGGGGUCUAAAACUGAGCGGAUAACCUCUCUAUGG RNA 2: GGGAAUGGAUCCACAUCUACGAAUUCGUACCAUAGAGAGGUUAUCCGCUCCAUCCGAGAUCGGAAGAGCACACGU	10.8 ± 0.8
target 1 insC 3' of 15,insC 3' of 5 (mixed) RNA 1: CACCCGUGCAAAAAUGCAGGGGUCUAAAACUGAGCGGAUAACCUCUCUAUGG RNA 2: GGGAAUGGAUCCACAUCUACGAAUUCGUACCAUAGAGCAGGUUAUCCGCCUCACCGAGAUCGGAAGAGCACACGU	9.8 ± 0.4
target 1 insC 3' of 1,insC 3' of 1 (mixed) RNA 1: CACCCGUGCAAAAAUGCAGGGGUCUAAAACUGAGCGGAUAACCUCUCUAUGG RNA 2: GGGAAUGGAUCCACAUCUACGAAUUCGUACCAUAGAGAGGUUAUCCGCUCACCCCGAGAUCGGAAGAGCACACGU	11.2 ± 0.5
